Earlier results on 3 substances are cited in paper PMC12469268.

The target in series [1] is α1A-adrenoceptor (Homo sapiens) (UniProt P35348). As to the kind of experiment: 3H-prazosin competition binding.
Series [2] concerns the target integrin αvβ3 (Homo sapiens) (UniProt P06756).
The target in series [3] is α2B-adrenoceptor (Homo sapiens) (UniProt P18089).
The target in series [4] is α2A-adrenoceptor (Homo sapiens) (UniProt P08913).
The target of series [5] is α2C-adrenoceptor (Homo sapiens) (UniProt P18825).

By Ki is commonly meant a dissociation constant, usually derived from enzyme kinetics or from competition with a known ligand. Turning to AdTx1 (from UniProt P85092), the Ki in series [1] was 0.35 nM. One may read the Kd as the constant that tells how readily two partners part at equilibrium. Turning to “CTX A5 (cardiotoxin A5) (from UniProt P62375)”, the Kd in series [2] is 300 nM.

Regarding ρ-Da1b (from UniProt P86419), the Ki was 73 nM in series [3], 14 nM in series [4] and 38 nM in series [5].
